Measured values published in publication PMC12143592, “Bacterial RecD2 is a processive single-stranded DNA translocase with strand-switching capacity at DNA forks” (Nucleic Acids Research, 2025).

What was measured:
RecD2 (His-tagged) [1] = molecular target: T1, RecD2 (His-tagged) (Bacillus subtilis, UniProt O34481 1-798); assay: EMSA; conditions: 2 mM MgCl2, 1 mM ATPgS, EMSA: 0.25 nM 32P-DNA, buffer B (composition not in material), 2 mM MgCl2 (or 10 mM), 15 min 37 C, then 0.05% glutaraldehyde 15 min 37 C, 8% PAGE …
T1 sequence: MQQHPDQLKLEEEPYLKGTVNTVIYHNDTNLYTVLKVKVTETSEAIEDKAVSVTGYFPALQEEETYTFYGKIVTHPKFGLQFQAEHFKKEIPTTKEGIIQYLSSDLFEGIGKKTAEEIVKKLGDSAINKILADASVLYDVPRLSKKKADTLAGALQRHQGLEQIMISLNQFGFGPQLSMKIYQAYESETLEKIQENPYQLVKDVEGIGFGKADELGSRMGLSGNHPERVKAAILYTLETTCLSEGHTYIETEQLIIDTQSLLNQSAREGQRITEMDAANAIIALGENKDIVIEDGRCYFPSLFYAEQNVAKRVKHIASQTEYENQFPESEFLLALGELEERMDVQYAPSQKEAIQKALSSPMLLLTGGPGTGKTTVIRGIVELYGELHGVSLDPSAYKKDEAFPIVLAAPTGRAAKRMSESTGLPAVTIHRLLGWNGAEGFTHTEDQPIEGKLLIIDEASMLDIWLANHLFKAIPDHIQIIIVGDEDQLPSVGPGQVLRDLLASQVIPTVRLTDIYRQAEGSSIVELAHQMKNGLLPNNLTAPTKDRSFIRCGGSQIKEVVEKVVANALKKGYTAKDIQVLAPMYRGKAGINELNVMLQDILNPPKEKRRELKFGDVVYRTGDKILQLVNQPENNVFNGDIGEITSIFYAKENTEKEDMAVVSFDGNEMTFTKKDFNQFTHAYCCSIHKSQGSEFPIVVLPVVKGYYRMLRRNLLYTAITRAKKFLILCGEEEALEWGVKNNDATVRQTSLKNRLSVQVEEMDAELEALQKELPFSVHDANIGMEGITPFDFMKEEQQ

RecD2 (His-tagged) [2] = molecular target: T1, RecD2 (His-tagged); assay: EMSA; 2 mM MgCl2, 1 mM ATPgS; EMSA: 0.25 nM 32P-DNA, buffer B (composition not in material), 1 mM ATPgS, 2 mM MgCl2 (or 10 mM), 15 min 37 C, then 0.05% glutaraldehyde 15 min 37 C, 8% PAGE; single-molecule: buffer A (composition not in material); conditions: protein: recombinant; tags: 6xHis (not removed); label: 32P
RecD2 (His-tagged) [3] = molecular target: T1, RecD2 (His-tagged); assay: EMSA; 10 mM MgCl2, 1 mM ATPgS; EMSA: 0.25 nM 32P-DNA, buffer B (composition not in material), 1 mM ATPgS, 2 mM MgCl2 (or 10 mM), 15 min 37 C, then 0.05% glutaraldehyde 15 min 37 C, 8% PAGE; single-molecule: buffer A (composition not in material); conditions: protein: recombinant; tags: 6xHis (not removed); label: 32P
[4] = substrate: Nc1ncnc2c1ncn2[C@@H]1O[C@H](COP(=O)(O)OP(=O)(O)OP(=O)(O)O)[C@@H](O)[C@H]1O; assay: coupled ATP/NADH spectrophotometric ATPase assay, Michaelis-Menten fit; assay type: biochemical, Bacillus subtilis; conditions: ssDNA cofactor dT80 (3 μM nucleotides), 5 nM RecD2, 2 mM MgCl2, pH 7.5, 37 °C, turnover printed as Vmax per RecD2

Molecule	apparent K (half saturation) (RecD2 (His-tagged) [2]) [nM]	apparent K (half saturation) (RecD2 (His-tagged) [3]) [nM]	other results
5'-tailed duplex (30 nt tail)			K half (RecD2 (His-tagged) [1]): 16 nM
3'-tailed duplex (30 nt tail)			K half (RecD2 (His-tagged) [1]): 14 nM
TTTTTTTTTTTTTTTTTTTTTTTTTTTTTT (ssDNA) [poly(dT)30]	~6		
CTAATTTACGCTAACCTACGATGAGCAGCC (ssDNA) [30-nt random ssDNA (22-M-30)]	212 ± 17.7	246 ± 20.2	
RecD2 (BsRecD2) (Bacillus subtilis subsp. subtilis str. 168) (protein) MQQHPDQLKLEEEPYLKGTVNTVIYHNDTNLYTVLKVKVTETSEAIEDKAVSVTGYFPALQEEETYTFYGKIVTHPKFGLQFQAEHFKKEIPTTKEGIIQYLSSDLFEGIGKKTAEEIVKKLGDSAINKILADASVLYDVPRLSKKKADTLAGALQRHQGLEQIMISLNQFGFGPQLSMKIYQAYESETLEKIQENPYQLVKDVEGIGFGKADELGSRMGLSGNHPERVKAAILYTLETTCLSEGHTYIETEQLIIDTQSLLNQSAREGQRITEMDAANAIIALGENKDIVIEDGRCYFPSLFYAEQNVAKRVKHIASQTEYENQFPESEFLLALGELEERMDVQYAPSQKEAIQKALSSPMLLLTGGPGTGKTTVIRGIVELYGELHGVSLDPSAYKKDEAFPIVLAAPTGRAAKRMSESTGLPAVTIHRLLGWNGAEGFTHTEDQPIEGKLLIIDEASMLDIWLANHLFKAIPDHIQIIIVGDEDQLPSVGPGQVLRDLLASQVIPTVRLTDIYRQAEGSSIVELAHQMKNGLLPNNLTAPTKDRSFIRCGGSQIKEVVEKVVANALKKGYTAKDIQVLAPMYRGKAGINELNVMLQDILNPPKEKRRELKFGDVVYRTGDKILQLVNQPENNVFNGDIGEITSIFYAKENTEKEDMAVVSFDGNEMTFTKKDFNQFTHAYCCSIHKSQGSEFPIVVLPVVKGYYRMLRRNLLYTAITRAKKFLILCGEEEALEWGVKNNDATVRQTSLKNRLSVQVEEMDAELEALQKELPFSVHDANIGMEGITPFDFMKEEQQ			Km [4]: 82 µM; kcat [4]: ~223 s⁻¹
80-nt random ssDNA (17-M-80) (ssDNA) DNA: ACGGCCTAGAACGGCCTAGAACGGCCTAGATCGTGAACCTGCAGGTAAGGGGCTGCTCATCGTAGGTTAGCGTAAATTAG	11.1 ± 5.4	39.1 ± 15.4	
60-nt random ssDNA (17-M-60) (ssDNA) DNA: ACGGCCTAGATCGTGAACCTGCAGGTAAGGGGCTGCTCATCGTAGGTTAGCGTAAATTAG	13.5 ± 4.2	44.2 ± 14.1	
